The text below walks through data of patent US20040171019A1, “PIN1 peptidyl-prolyl isomerase polypeptides, their crystal structures, and use thereof for drug design” (Agouron Pharmaceuticals, Inc., priority 2002, published 2004).

For the test, the target named is 6His-PPIase domain of PIN1 (human) (UniProt Q13526). The test is described as follows: fluorescence polarization competition; free Pintide displaces fluorescein-tagged Pintide from the 6His-PPIase domain of PIN1. On the technique in general: In fluorescence polarisation assays a small probe gives low polarisation when free and higher when bound to something large.

For the substance “Pintide (WFYpSPFLE) without the fluorescein tag (peptide)”, the half-inhibitory concentration (IC50) (in general, the concentration at which inhibition is half-maximal) was in the range of 7 to 10 µM.
